Source: patent US20240293499A1 (SUNNYBROOK RESEARCH INSTITUTE, published 2024)

Legend:
[1] = biological target: T1, hVISTA-Fc (produced in house) (human, UniProt Q9H7M9 33-194, limits assumed); assay: SPR (BIAcore T200), single-cycle kinetics, Nb captured on anti-His chip, hVISTA-Fc injected at 1.9, 3.8, 7.5, 15, 30 nM, 1:1 fit
T1 construct: Analyte in the SPR of the nanobodies; not shown: Fc
T1 sequence (looked up): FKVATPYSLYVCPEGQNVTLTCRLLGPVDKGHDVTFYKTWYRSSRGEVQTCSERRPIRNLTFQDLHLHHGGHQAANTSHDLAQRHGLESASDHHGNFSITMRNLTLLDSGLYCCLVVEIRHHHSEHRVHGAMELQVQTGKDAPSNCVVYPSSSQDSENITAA
Procedure: Binding kinetics of mAbs and Nbs to hVISTA and mVISTA were obtained by surface plasmon resonance (SPR) using a BIAcore T200 (Cytiva) and HBS running buffer (20 mM of HEPES pH 7.4, 150 mM NaCl, 0.005% Tween-20, 3.4 mM EDTA). Briefly, anti-histidine antibodies were immobilized on a CM5 chip (29149604; Cytiva) using the His capture kit (28995056; Cytiva) following manufacture's protocol. For mAbs, VISTA was captured by flowing […] of hVISTA-COMP-his or mVISTA-COMP-his at a flow rate of 30 μL/min. Sensorgrams were collected using single-cycle kinetics covering five mAb concentrations (1:2 serial dilutions). For Nbs, solutions of each nanobody ([…]) were flown over an anti-histidine-coated chip. Five concentrations (1:2 serial dilutions) of hVISTA-Fc (produced in house) were then injected at a flow rate of 30 μL/min. KD, Kₒₙ, and Koff were calculated by analyzing the sensorgrams with a 1:1 Langmuir binding model²³ after subtracting reference sensorgrams.

[2] = biological target: T2, murine VISTA (mVISTA), recombinant; form not stated (mouse, UniProt Q9D659 33-191, limits assumed); assay: SPR single-cycle kinetics (FIG. 8)
T2 construct: The SPR method names only hVISTA-Fc as analyte for the nanobodies; also called mouse VISTA
T2 sequence (looked up): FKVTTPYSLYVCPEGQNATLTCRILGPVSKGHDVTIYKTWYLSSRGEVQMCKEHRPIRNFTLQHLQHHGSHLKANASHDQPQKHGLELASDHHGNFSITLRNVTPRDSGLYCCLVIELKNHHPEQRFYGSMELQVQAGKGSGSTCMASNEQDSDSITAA

[3] = biological target: T3, human VISTA on primary human immune cells (CD14+CD16- classical monocytes of PBMCs) (human, UniProt Q9H7M9 33-311); assay: flow cytometry on human PBMC, gate CD14+CD16- monocytes, ΔMFI against control, 5 donors
T3 construct: whole, on cells; Native protein on donor cells; also called hVISTA
T3 sequence (looked up): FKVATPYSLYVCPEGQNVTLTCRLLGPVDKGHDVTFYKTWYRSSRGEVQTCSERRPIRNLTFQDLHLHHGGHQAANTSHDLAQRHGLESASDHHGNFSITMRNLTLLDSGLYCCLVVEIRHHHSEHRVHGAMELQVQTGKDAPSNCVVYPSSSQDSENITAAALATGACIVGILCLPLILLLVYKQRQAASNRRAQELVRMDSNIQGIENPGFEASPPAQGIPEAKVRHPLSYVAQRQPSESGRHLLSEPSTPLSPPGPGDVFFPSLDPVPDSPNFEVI
Procedure: PBMCs had their Fc receptors blocked with Human TruStain FcX (422301; BioLegend) then incubated with 2.5 μg of mAb, mouse IgG1 (401408; BioLegend), or rat IgG2a (400565; BioLegend) or 15 μg Nb for 1 hour at 4° C. After washing with PBS, the PBMCs were incubated with secondary antibodies (1 μL; FITC anti-mouse IgG1, FITC anti-HA, or FITC anti-rat IgG2a; 406605, 901507, or MRG2a-83; BioLegend) or control FITC anti-VISTA antibodies (clone B7H5DS8; 11-1088-42; eBioscience) for 40 minutes at 4° C. A staining cocktail consisting of PE/Cy5 anti-CD11b (101210; BioLegend), APC/Cy7 anti-CD14 (325620; BioLegend), Alexa Flour 700 anti-CD16 (302026; BioLegend), PE/Cy7 anti-CD4 (317414; BioLegend), and Alexa Flour 647 anti-CD8 (301022; BioLegend) was then added to the PBMCs and incubated for 20 minutes at 4° C. Finally, the PBMCs were washed and resuspended in 3 μM DAPI (D1306; Thermo Fisher Scientific) and cytometric profiles recorded using a BD LSR II flow cytometer (BD) maintained by The Centre for Flow Cytometry & Scanning Microscopy (CCSM) at Sunnybrook Research Institute (SRI; Sunnybrook Health Sciences Centre, Toronto, ON, Canada). The same protocol was performed on murine splenocytes to measure the binding of rat anti-hmVISTA mAbs to murine immune cells.

- Kd [1]: 7.5 nM
- binding result [2]: no binding
- binding result [3]: binds
B1: anti-hVISTA nanobody hVISTANb7 (VHH)
VHH: QVQLQESGGGLVYPGGSLRLSCTASGFAFTNAYMNWVRQAPGKGAEWVSGITRDSNRTSYADSVKGRFTISRDNAKNTLYLQMDSLKSDDTALYYCNAEPSGWWLDDDYWGQGTQVTVSS
notes: Llama nanobody made in E. coli WK6; not shown: HA tag and His tag (pMECS vector; purified on a His-Trap column, detected with anti-HA)
